Patent US12065466B2, “Methods and compositions for protein sequencing” (Quantum-Si Incorporated, priority 2020, dated 2024)
Substitutions are numbered along the chain they refer to. Like-named read-outs stand apart in the source and are kept apart here.

B1: PS528: UBR-box domain homolog, SEQ ID NO: 156 (protein, listed as Kluyveromyces lactis)
chain: MHSKFNHAGRICGAKFRVGEPIYRCKECSFDDTCVLCVNCFNPKDHVGHHVYTSICTEFNNGICDCGDKEAWNHELNCKGAED
B2: PS621: UBR-box domain homolog, SEQ ID NO: 181 (protein, listed as Kluyveromyces marxianus)
chain: B1 chain with N6S, R17K, V47T, S54T, E75T, N77F, G80A, A81E, D83G
B3: PS557: PS372-homologous ClpS protein, SEQ ID NO: 71 (protein, listed as Planctomycetes bacterium)
chain: MPTAASATESAIEDTPAPARPEVDGRTKPKRQPRYHVVLWNDDDHTYQYVVVMLQSLFGHPPERGYRLAKEVDTQGRVIVLTTTREHAELKRDQIHAFGYDRLLARSKGSMKASIEAEE
B4: PS609: single polypeptide with two tandem copies of atClpS2-V1 joined by Linker 1 (SEQ ID NO: 243) (protein)
chain: MSDSPVDLKPKPKVKPKLERPKLYKVMLLNDDYTPMSFVTVVLKAVFRMSEDTGRRVMMTAHRFGSAVVVVCERDIAETKAKEATDLGKEAGFPLMFTTEPEEGGGSGGGSGGGSGMSDSPVDLKPKPKVKPKLERPKLYKVMLLNDDYTPMSFVTVVLKAVFRMSEDTGRRVMMTAHRFGSAVVVVCERDIAETKAKEATDLGKEAGFPLMFTTEPEEGHHHHHHHHHHGGGSGGGSGGGSGLNDFFEAQKIEWHEGGGSGGGSGGGSGLNDFFEAQKIEWHE
B5: PS698 (protein)
chain: MPTAASATESAIEDTPAPARPEVDGRTKPKRQPRYHVVLWNDDDHTYQYVVVMLQSLFGHPPERGYRLAKEVDTQGRVIVLTTTREHAELKRDQIHAFGYDRLLARSKGSMKASIEAEEHHHHHHHHHHGGGSGGGSGGGSGLNDFFEAQKIEWHEGGGSGGGSGGGSGLNDFFEAQKIEWHEGSAGSAAGSGEFMDKDCEMKRTTLDSPLGKLELSGCEQGLHEIKLLGKGTSAADAVEVPAPAAVLGGPEPLMQATAWLNAYFHQPEAIEEFPVPALHHPVFQQESFTRQVLWKLLKVVKFGEVISYQQLAALAGNPAATAAVKTALSGNPVPILIPCHRVVSSSGAVGGYEGGLAVKEWLLAHEGHRLGKPGLG

Assays:
[1] = system: amino acid at a terminal position of a polypeptide; conditions: Table 2; amino acid identity at a terminal position (phosphotyrosine also internal); inferred from literature and/or demonstrated by the inventors; cited from earlier work
[2] = system: labeled peptide (XAKLDEESILKQK-FITC (SEQ ID NO: 238)); RA, KA, HA; assay: Single point fluorescence polarization assay of UBR-streptavidin complex; format: binding
Method: Single point fluorescence polarization assays were then performed for selected candidates. These assays measured the interaction of labeled peptide (XAKLDEESILKQK-FITC (SEQ ID NO: 238)) with UBR-streptavidin complex in a format in which these molecules are free in solution. Measurements of polarization response (millipolarization, mP) and total intensity for RA, KA, and HA peptides were performed.

[3] = system: immobilized peptides containing N-terminal R, K or H; assay: Biolayer interferometry of UBR-box domain homologs; format: binding; conditions: for binding range for RX dipeptides: 14 peptides RXGGGDDDFFK (SEQ ID NO: 241)
Method: The amino acid binding properties of UBR-box domain homologs were evaluated by biolayer interferometry. Peptides containing an N-terminal arginine (R), followed by different amino acids in the penultimate position, were immobilized on a biolayer interferometry sensor surface, allowed to bind to UBR-box protein, and incubated in buffer to allow the UBR-box molecules to dissociate. […] FIG. 32C is a heatmap showing results measured for 24 UBR-box homologs against 14 polypeptides containing N-terminal R followed by different amino acids in the penultimate position.
UBR proteins bind to the basic N-terminal residues R, K, and H as part of the conserved N-end rule pathway. To identify high-affinity UBR proteins with properties favorable for use in sequencing, a diverse panel of uncharacterized UBR-box domain homologs from 44 species (PS501-PS544) was designed. UBR-box domain homologs were expressed, purified, and evaluated for binding to N-terminal amino acids by biolayer interferometry. Measurements were carried out at 30° C. for each protein for R, K and H binding. The amino-acid binding profile of each new homolog was first evaluated by biolayer interferometry using a single-point screening assay. All peptides in this screen contained a penultimate alanine (A) and consisted of the sequence XAKLDEESILKQK (SEQ ID NO: 238), where X is R, K, or H.
To evaluate the effect of penultimate amino acids on arginine binding, UBR box-domain homologs were evaluated for binding to 14 different peptides with N-terminal RX (peptide sequence: RXGGGDDDFFK (SEQ ID NO: 241)). The selected RX dipeptides are the 14 most frequently found in the human proteome.

dye-labeled RL peptide = assay: Peptide-on-chip recognition assay for N-terminal arginine peptide; format: binding
Method: Peptide-on-chip recognition assays for N-terminal arginine peptide were performed with PS621 and PS528. Both PS528 and PS621 recognized N-terminal R, and binding to dye-labeled RL peptide at the single-molecule level was confirmed in these recognition assays, with average pulse width of approximately 60 ms.

[4] = target: N-terminal arginine peptide (alanine at the penultimate position); assay: Fluorescence polarization binding affinity of tandem recognizers, RA peptide
Method: Three different constructs were designed and expressed for each multivalent UBR-box binder: PS690, PS691, and PS692 (Bis-PS621 binders having Linker 1, Linker 2, and Linker 3, respectively); and PS693, PS694, and PS695 (Bis-PS528 binders having Linker 1, Linker 2, and Linker 3, respectively). Fluorescence polarization studies were performed to evaluate the binding affinity of each of the multivalent UBR-box binders, and the corresponding monomeric binders, for a peptide having an N-terminal arginine residue with an alanine residue at the penultimate position. The KD values obtained from these studies are reported below in Table 11.

RA and KA peptides = assay: Fluorescence polarization binding titration of UBR-box domain candidates (KD); conditions: RA peptide
Method: The binding affinity of selected UBR-box domain candidates was then evaluated by measuring KD (dissociation constant) values for N-terminal R and K peptides. Assays were performed for RA and KA peptides at increasing concentration of UBR protein (FIG. 32G, top plots). KD values were determined from the binding titration curves.

[5] = system: peptides with different N-terminal amino acids, penultimate alanine; assay: Biolayer interferometry of multivalent amino acid binders; format: binding
Method: The amino acid binding profile of each Bis-atClpS2-V1 binder (PS609, PS610, and PS611) was evaluated by biolayer interferometry as described above. The monovalent atClpS2-V1 was run as a control. Measurements with each binder were carried out for the amino acids F, Y, and W, along with I, L, M, and V as negative controls. All peptides contained a penultimate alanine (A). Response curves for the tandem binders PS609, PS610, and PS611 are shown in FIGS. 35B, 35C, and 35D, respectively.
The multivalent binder PS612 is a polypeptide that contains tandem copies of two different ClpS protein monomers (atClpS2-V1 and PS372). The amino acid binding profile of PS612 was evaluated by biolayer interferometry as described above. The monovalent binders atClpS2-V1 and PS372 were separately run as controls.
The multivalent binder PS614 is a polypeptide that contains two copies of the ClpS binder PS372 oriented in tandem. The amino acid binding profile of PS614 was evaluated by biolayer interferometry as described above.
The multivalent binders PS637, PS638, and PS639 are polypeptides that each contain two copies of the ClpS binder PS557 oriented in tandem and separated by Linker 1, Linker 2, and Linker 3, respectively. The amino acid binding profiles of each binder was evaluated by biolayer interferometry as described above.

[6] = system: labeled N-terminal LA peptide; assay: Stopped-flow dissociation rate (koff), PS557 derivatives; format: binding; conditions: excess unlabeled trap peptide
Description: To measure the dissociation rate (koff) by stopped-flow, complexes of binder bound to labeled peptide substrate at an optimal concentration were rapidly mixed with excess unlabeled trap peptide. […] The averaged raw traces were fitted with an exponential equation to determine the koff (FIG. 37B, bottom panel).

[7] = system: FITC labeled N-terminal LA peptide; assay: Stopped-flow association rate constant (kon), PS557 derivatives; format: binding
Method: Stopped-flow assays were performed to measure the association (kon) and dissociation (koff) rates for PS557, atClpS2-V1, and fusion proteins derived by C-terminal addition of protein shields. To measure the on-rate constant by stopped-flow, the binder was rapidly mixed with FITC labeled peptide, and the reaction was followed in real time. N-terminal LA peptide was used for PS557 derivatives and N-terminal FA peptide was used for atClpS2-V1 derivatives. In this assay, the fluorescence signal decreased due to quenching upon protein binding. The averaged traces obtained at multiple concentrations of binder were fitted with a decay equation to derive association rates (FIG. 37A, middle panel). A linear slope from the plot of association rates against different binder concentrations gave the kon rate constant (FIG. 37A, bottom panel).

[8] = system: amino acid at a terminal position of a polypeptide; assay: Amino acid binding preference of recognition proteins (Tables 1 and 2); conditions: Table 1, ClpS proteins; amino acid identity at a terminal position of a polypeptide; inferred from literature and/or demonstrated by the inventors
Description: It should be appreciated that these sequences and other examples described herein are meant to be non-limiting, and recognition molecules in accordance with the application can include any homologs, variants thereof, or fragments thereof minimally containing domains or subdomains responsible for peptide recognition.

[9] = target: N-terminal phenylalanine peptide (alanine at the penultimate position); assay: Fluorescence polarization binding affinity of tandem recognizers, FA peptide
Method: The multivalent binder PS651 was designed as a tandem fusion molecule expressed from a single coding sequence containing segments encoding three copies of atClpS2-V1 (Tris-atClpS2-V1) joined end-to-end by segments encoding a flexible peptide linker (Linker 2). Fluorescence polarization studies were performed with PS651, the Bis-atClpS2-V1 binders (PS609, PS610, PS611), and the monomeric binder atClpS2-V1, to determine the binding affinity of each for a peptide having an N-terminal phenylalanine residue with an alanine residue at the penultimate position. The KD values obtained from these studies are reported below in Table 9.

| Molecule | Binding Pref. [1] | polarization response with RA peptide [2] | binding range for RX dipeptides [3] | binding to RA/KA/HA peptides (single-point screening) ([3]; 30° C., XAKLDEESILKQK) | average pulse width (dye-labeled RL peptide) | LA koff [6] [s⁻¹] | LA kon [7] [M⁻¹ s⁻¹] | also measured |
| --- | --- | --- | --- | --- | --- | --- | --- | --- |
| B1 | K, R, H | bind to RA peptides with strong responses | extensive binding range for RX dipeptides | favorable binding trajectories to RA and KA peptides with notably high response for RA peptide | approximately 60 ms |  |  | binding affinity to N-terminal R with different penultimate amino acids ([3]; 14 polypeptides containing N-terminal R): high binding affinity to R in the presence of a wide range of penultimate amino acids; dissociation trajectory and HA peptide binding ([3]; 30° C., XAKLDEESILKQK): slower dissociation trajectory and displayed binding to HA peptide; Kd [4]: 403 nM; Kd (RA and KA peptides): 460 nM |
| B2 | K, R, H | bind to RA peptides with strong responses | extensive binding range for RX dipeptides | favorable binding characteristics with results that were similar to PS528 | approximately 60 ms |  |  |  |
| B3 |  |  |  |  |  | 0.22 | 1.8e+06 | N-terminal amino acids bound (biolayer interferometry) [5]: binds N-terminal I, L, and V; Binding Pref. [8]: I, L, V |
| B4 |  |  |  |  |  |  |  | Kd [9]: 221 nM |
| B5 |  |  |  |  |  | 0.19 | 4e+06 |  |
